# In IntAct's records for PubMed 34706264:
# B1: ORF3a protein (SARS-CoV-2), P0DTC3 (parent)
# chain: MDLFMRIFTIGTVTLKQGEIKDATPSDFVRATATIPIQASLPFGWLIVGVALLAVFQSASKIITLKKRWQLALSKGVHFVCNLLLLFVTVYSHLLLVAAGLEAPFLYLYALVYFLQSINFVRIIMRLWLCWKCRSKNPLLYDANYFLCWHTNCYDYCIPYNSVTSSIVITSGDGTTSPISEHDYQIGGYTEKWESGVKDCVVLHSYFTSDYYQLYSTQLSTDTGVEHVTFFIYNKIVDEPEEHVQIHTIDGSSGVVNPVMEPIYDEPTTTTSVPL
# partner: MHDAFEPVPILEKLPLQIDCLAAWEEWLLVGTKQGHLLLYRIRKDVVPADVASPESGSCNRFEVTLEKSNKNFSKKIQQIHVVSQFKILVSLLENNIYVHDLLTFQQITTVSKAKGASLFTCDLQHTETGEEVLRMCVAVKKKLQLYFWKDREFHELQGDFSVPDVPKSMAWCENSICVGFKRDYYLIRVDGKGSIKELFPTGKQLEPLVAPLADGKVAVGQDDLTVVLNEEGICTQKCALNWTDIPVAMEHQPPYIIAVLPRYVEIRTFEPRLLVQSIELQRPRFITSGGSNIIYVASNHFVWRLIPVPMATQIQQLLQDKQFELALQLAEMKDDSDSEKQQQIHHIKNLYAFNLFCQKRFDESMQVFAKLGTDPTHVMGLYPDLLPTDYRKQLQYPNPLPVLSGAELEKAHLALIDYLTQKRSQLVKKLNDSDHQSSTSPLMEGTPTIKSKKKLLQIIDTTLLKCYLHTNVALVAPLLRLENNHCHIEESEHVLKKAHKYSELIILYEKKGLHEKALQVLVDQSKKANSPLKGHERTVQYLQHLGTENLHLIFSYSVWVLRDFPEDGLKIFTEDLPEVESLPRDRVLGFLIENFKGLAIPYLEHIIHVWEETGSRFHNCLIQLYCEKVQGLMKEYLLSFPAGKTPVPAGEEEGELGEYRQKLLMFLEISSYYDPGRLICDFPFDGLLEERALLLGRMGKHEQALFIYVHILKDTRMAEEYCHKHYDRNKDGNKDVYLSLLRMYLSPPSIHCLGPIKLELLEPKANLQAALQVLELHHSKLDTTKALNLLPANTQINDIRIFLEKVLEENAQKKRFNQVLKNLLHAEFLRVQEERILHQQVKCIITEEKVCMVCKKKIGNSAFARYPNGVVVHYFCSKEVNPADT
# B2: ORF3a protein (SARS-CoV-2), P0DTC3 (parent)
# chain: B1 chain
# Variants of: B1
# Conditions: with vps39_human VPS39, Q96JC1
row,Variant,effect of a mutation on the interaction
1,Q57E,with no effect
2,Q116L,with no effect
3,S58L,with no effect

# Variants of: B1
# Conditions: with vps39_human VPS39, Q96JC1
# Remark: another data set of the same source
row,Variant,effect of a mutation on the interaction
1,W193R,decreasing interaction strength
2,S171E,disrupting interaction strength

# Variants of: B2
# Conditions: with stx4_human STX4, Q12846
# Chain of stx4_human STX4, Q12846 (Q12846 whole entry): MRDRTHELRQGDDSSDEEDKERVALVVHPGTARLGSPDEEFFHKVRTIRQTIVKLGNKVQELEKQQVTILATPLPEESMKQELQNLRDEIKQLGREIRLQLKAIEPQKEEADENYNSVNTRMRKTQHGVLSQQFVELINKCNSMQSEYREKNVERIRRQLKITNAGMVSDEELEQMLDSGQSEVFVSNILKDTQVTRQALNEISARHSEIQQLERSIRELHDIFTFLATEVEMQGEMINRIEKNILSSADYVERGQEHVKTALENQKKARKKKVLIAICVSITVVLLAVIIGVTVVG
row,Variant,effect of a mutation on the interaction
1,S171E,disrupting interaction strength

# Variants of: B2
# Conditions: with vamp7_human VAMP7, P51809
# Chain of vamp7_human VAMP7, P51809 (P51809 whole entry): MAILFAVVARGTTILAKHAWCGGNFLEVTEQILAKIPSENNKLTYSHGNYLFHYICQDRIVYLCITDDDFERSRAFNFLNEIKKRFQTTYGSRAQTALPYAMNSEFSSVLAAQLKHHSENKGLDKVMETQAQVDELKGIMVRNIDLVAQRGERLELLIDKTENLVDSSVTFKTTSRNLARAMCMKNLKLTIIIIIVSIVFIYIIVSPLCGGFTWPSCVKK
row,Variant,effect of a mutation on the interaction
1,S171E,disrupting interaction strength
